According to PMC3174154, “Protein-Protein Interactions in Crystals of the Human Receptor-Type Protein Tyrosine Phosphatase ICA512 Ectodomain” (PLoS ONE, 2011):

Experiments:
[1] = target: the molecule itself; test: SEC; Superose 12, 20°C, 20 mM sodium phosphate, 150 mM NaCl, pH 7.0; each variant injected at 500 µM in 100 µl, alone or preincubated and injected together
[2] = target: the molecule itself; test: SEC; Rs against protein concentration in the eluting peak; monomer-dimer equilibrium fitted (dimer to monomers); the text names size exclusion chromatography and light scattering

B1: mature ectodomain of ICA512 (ME ICA512), wild type, residues 470 to 558 (domain or fragment, human, UniProt Q16849 470-558, looked up)
chain: EYGYIVTDQKPLSLAAGVKLLEILAEHVHMSSGSFINISVVGPALTFRIRHNEQNLSLADVTQQAGLVKSELEAQTGLQILQTGVGQRE
notes: the results say 470 to 556; The methods give 470-558, the results 470-556; also called wild-type ME ICA512; wild type variant
Q: For B1, which “stoichiometry N” value [1] is on record?
A: The value was 2.

Q: What about the Kd [2] of the same protein?
A: Its Kd is 800 nM.
